In patent EP4269437A1:
One block for each binder: values may come before it.

Experiments:
[1] = biological target: PD-1 (UniProt Q15116); assay: ELISA, TG1 supernatant on coated PD-1, anti-c-myc HRP
[2] = biological target: PD-1 (UniProt Q15116); assay: blocking ELISA, clone supernatant, competitor PD-L1.hFc detected with anti-human Fc HRP

Chain of PD-1 (Q15116 25-170 limits assumed): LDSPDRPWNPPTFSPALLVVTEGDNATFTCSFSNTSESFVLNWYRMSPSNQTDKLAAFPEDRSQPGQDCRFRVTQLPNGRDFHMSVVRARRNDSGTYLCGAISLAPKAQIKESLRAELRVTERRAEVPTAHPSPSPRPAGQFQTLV

OD450, clone binding with PD-1 [1]: 3.13 OD450
OD450, PD-L1 binding with PD-1 [2]: 2.23 OD450
B1: NB222 (VHH)
VHH: QVQLVESGGGLVQAGGSLRLSCAASGGTFSNFNVGWFRQAPGKEREFVAASNWSAGTTHYSDSVKGRFTISRDNAANTAYLQMNSLRPDDTAVYYCNRVIRGTTYPDVYYGMDYWGKGTLVTVSS

OD450, clone binding with PD-1 [1]: 2.62 OD450
OD450, PD-L1 binding with PD-1 [2]: 2.25 OD450
B2: NB221 (VHH)
VHH: EVQLVESGGGLVQAGDSLRLSCAASGRTFSSVAMGWFRQAPGKEREFVAAISRSGGSAGYADSVKDRSTIARDNTKNTVYLQMNSLKPEDTAVYFCAASEYDFCSTHGCYDYWGQGTQVTISL

OD450, clone binding with PD-1 [1]: 2.13 OD450
OD450, PD-L1 binding with PD-1 [2]: 2.43 OD450
B3: NB548 (VHH)
VHH: QLQLVESGGGLVQPGGSLRLSCTANGFSVGDYSMSWHRQPPGKEREVVATTARDSGSTFYAASVKGRFTISRDNAKNTVYLQMNSLKPEDTGVYYCRVNSQDYWGQGTQVTVSS

OD450, clone binding with PD-1 [1]: 1.7 OD450
OD450, PD-L1 binding with PD-1 [2]: 2.2 OD450
B4: NB755 (VHH)
VHH: QVQLVESGGGLVQAGGSLRLSCVDSGRTFSSYGMGWFRQAPGKEREFVAAVNWRNTTAYYADSAKDRFTISSDNAKNTVYLQMASLKPEDTGVYYCRPYSDYVSYDPTEYDSWGQGTQVTVSS

OD450, clone binding with PD-1 [1]: 1.81 OD450
OD450, PD-L1 binding with PD-1 [2]: 2.44 OD450
B5: NB735 (VHH)
VHH: EVQVVESGGGLVQPGGSLTLSCAVSGFTLDDYSIGWFRQAPGRAREAVSCTSNRDGSTYYEDSVKGRFTISRDNAKNTVYLQMNSLKPEDTAVYRCSTDCSLYGSTYSPDYWGQGTQVIVSS

OD450, clone binding with PD-1 [1]: 2.17 OD450
OD450, PD-L1 binding with PD-1 [2]: 1.42 OD450
B6: NB734 (VHH)
VHH: QVQLVETGGGLVQAGGSLRLSCAASGDTILFSAVGWHRQAPGKERELVAAITNSGVTYYADSVKGRFSISRDNAKNTVYLQMNSLKPEDTAVYYCNAGAPPPGEFGYDESDYWGQGTQVTVSS

OD450, clone binding with PD-1 [1]: 1.36 OD450
OD450, PD-L1 binding with PD-1 [2]: 2.19 OD450
B7: NB532 (VHH)
VHH: QVQLVETGGGLVQAGGSLRLSCAASGRTFSSYNMGWFRQAPGKEREFVAAISWSGGSQGYAAAVKDRFTISRDNAKNTVYLQMNSLKAEDTAVYYCAAKYHSGSYYYTSIRPEEYDYWGQGTQVTVSS

OD450, clone binding with PD-1 [1]: 3.12 OD450
OD450, PD-L1 binding with PD-1 [2]: 2.39 OD450
B8: NB139 (VHH)
VHH: EVQVVESGGGLVQTGGSLRLSCAASGDTALISAMGWYRQAPGKERELVAALTNTGITYYADSVKGRFTISRDNAKNTVYLQMNSLKPEDTAVYYCNAGAPPPGGLGYDESDYWGQGTQVTVSS

OD450, clone binding with PD-1 [1]: 2.04 OD450
OD450, PD-L1 binding with PD-1 [2]: 2.37 OD450
B9: NB754 (VHH)
VHH: QLQLVESGGGLVQPGGSLRLSCAVSGFTFSSDAMNWYRQAPGKERELVASITIDGGSTNYADSVKGRFTISRDNAKNTLYLQMNSLKPEDTAVYYCNADRGIIIYGKTYWGQGTQVTVSS

OD450, clone binding with PD-1 [1]: 1.03 OD450
OD450, PD-L1 binding with PD-1 [2]: 2.47 OD450
B10: NB733 (VHH)
VHH: QVQLVESGGGLVQPGASLRLSCAAAGFTFSSWAMTWVRQAPGKGLEWVSAISSGSGEMADYADSVKGRFAISRDNAKNTLYLQMNNLQPEDTAMYYCAKGGYLTYANLGPGTQVTVSS

OD450, clone binding with PD-1 [1]: 1.3 OD450
OD450, PD-L1 binding with PD-1 [2]: 2.25 OD450
B11: NB223 (VHH)
VHH: EVQLVESGGGLVQAGGSLRLSCAASGRTFSSYGMGWFRQAPGKEREFVAAVNWSNSSAYYADSVKDRFTISSDNAKSTIYLQMNSLKPEDTAVYYCRPYSDYVTYDPDDYDYWGQGTQVTVSS
